The source of these data is article PMC8441738 (MedComm, 2021).

Assay [1] addresses T1, SARS-CoV-2 RBD (residues Arg319-Phe541), His-tagged (SARS-CoV-2, UniProt P0DTC2). Put plainly: SPR. The following applies: both partners purified.
In assay [2] the target is T1, SARS-CoV-2 RBD (residues …). The experiment in a line: cryo-EM structure. The settings on record: both partners purified.

B1: MA1 monoclonal antibody (antibody, V domains shown)
VH: QVQLKESGPGLVAPSQSLSITCTVSGFSLSDYSISWIRQPPGKGLEWLGVIWGGGSTYYNSALKSRLSISKDNSKSQVFLKMNSLQTDDTAMYYCAKHPLYYGSNSDGYYAMDYWGQGTSVTVSS
VL: DIVMTQSHKFMSTSVGDRVSITCKASQDVGIVVAWYQQKPGQSPKLLIYWASTRHTGVPDRFTGSGSGTDFTLTISNVQSEDLADYFCQQYSSYPLTFGGGTKLEIK
notes: also called group I mAb; source: hybridoma cell line or transfection of linear expression cassettes
As for B1, the binding result in assay [1] is listed as “binds”.

B2: MA1scFv (scFv, V domains shown)
VH: QVQLKESGPGLVAPSQSLSITCTVSGFSLSDYSISWIRQPPGKGLEWLGVIWGGGSTYYNSALKSRLSISKDNSKSQVFLKMNSLQTDDTAMYYCAKHPLYYGSNSDGYYAMDYWGQGTSVTVSS
VL: DIVMTQSHKFMSTSVGDRVSITCKASQDVGIVVAWYQQKPGQSPKLLIYWASTRHTGVPDRFTGSGSGTDFTLTISNVQSEDLADYFCQQYSSYPLTFGGGTKLEIK
For B2, in assay [2], the binding result is on record as “binds”.
